In the supplement of paper PMC9112550, “Optimization of the antimicrobial peptide Bac7 by deep mutational scanning” (BMC Biology, 2022):

Test system: Escherichia coli TOP10
Assay: shrunken log2 fold change of peptide-encoding DNA abundance (4.5 h post-induction vs induction); higher = less antimicrobial activity (less host growth inhibition)
Conditions: time post-induction: 4.5 h; library: site-saturation at positions 5, 18, 19, 20
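Further: peptides expressed intracellularly from a pBAD plasmid library in pooled LB shake-flask culture, induced with 0.3% L-arabinose, DNA abundance read by NGS, three biological replicates, DESeq2 with apeglm shrinkage.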

| Sequence | shrunken log2 fold change |
| --- | --- |
| RRIRFRPPRLPRPRPRPDIGPRP | -0.0309 |
| RRIRRRPPRLPRPRPRPFGVPRP | 0.0764 |
| RRIRLRPPRLPRPRPRPTLKPRP | -0.307 |
| RRIRLRPPRLPRPRPRPRDFPRP | -0.206 |
| RRIRMRPPRLPRPRPRPCMSPRP | -0.00161 |
| RRIRNRPPRLPRPRPRPWDPPRP | -0.00879 |
| RRIRERPPRLPRPRPRPKSPPRP | 0.163 |
| RRIRYRPPRLPRPRPRPANIPRP | -0.0107 |
| RRIRNRPPRLPRPRPRPMMLPRP | -0.0295 |
| RRIRPRPPRLPRPRPRPWNPPRP | -0.496 |
| RRIRSRPPRLPRPRPRPIVNPRP | -0.259 |
| RRIRIRPPRLPRPRPRPRIWPRP | 0.063 |
| RRIRKRPPRLPRPRPRPWPQPRP | 0.0865 |
| RRIRWRPPRLPRPRPRPIRNPRP | -0.334 |
| RRIRGRPPRLPRPRPRPKSWPRP | 0.925 |
| RRIRCRPPRLPRPRPRPIQKPRP | -0.127 |
| RRIRPRPPRLPRPRPRPSNRPRP | -0.783 |
| RRIRRRPPRLPRPRPRPQGSPRP | 0.0234 |
| RRIRHRPPRLPRPRPRPNQDPRP | -0.337 |
| RRIRKRPPRLPRPRPRPIAFPRP | -0.0784 |
| RRIRVRPPRLPRPRPRPWSFPRP | -0.225 |
| RRIRGRPPRLPRPRPRPWAFPRP | 0.488 |
| RRIRERPPRLPRPRPRPMEQPRP | -0.136 |
| RRIRPRPPRLPRPRPRPNMVPRP | -0.772 |
| RRIRFRPPRLPRPRPRPHPYPRP | 0.0415 |

| Sequence | shrunken log2 fold change |
| --- | --- |
| RRIRLRPPRLPRPRPRPNHVPRP | -0.449 |
| RRIRVRPPRLPRPRPRPCKKPRP | -0.433 |
| RRIRCRPPRLPRPRPRPIPIPRP | -0.0907 |
| RRIRERPPRLPRPRPRPVMFPRP | 0.934 |
| RRIRGRPPRLPRPRPRPHQGPRP | -0.0236 |
| RRIRNRPPRLPRPRPRPDKNPRP | -0.226 |
| RRIRDRPPRLPRPRPRPFTDPRP | 0.00624 |
| RRIRGRPPRLPRPRPRPRKAPRP | 0.693 |
| RRIRPRPPRLPRPRPRPAENPRP | -0.197 |
| RRIRKRPPRLPRPRPRPFGSPRP | -0.00822 |
| RRIRERPPRLPRPRPRPTPNPRP | 0.0742 |
| RRIRHRPPRLPRPRPRPLVQPRP | -0.0987 |
| RRIRSRPPRLPRPRPRPKHMPRP | 0.00683 |
| RRIRARPPRLPRPRPRPVHFPRP | 0.396 |
| RRIRHRPPRLPRPRPRPAQPPRP | 0.1 |
| RRIRIRPPRLPRPRPRPSVFPRP | -0.219 |
| RRIRYRPPRLPRPRPRPTRKPRP | 0.00746 |
| RRIRDRPPRLPRPRPRPLTQPRP | 0.0757 |
| RRIRQRPPRLPRPRPRPSGHPRP | -0.0673 |
| RRIRCRPPRLPRPRPRPQFWPRP | 0.303 |
| RRIRKRPPRLPRPRPRPRIGPRP | 0.128 |
| RRIRSRPPRLPRPRPRPLDKPRP | -0.233 |
| RRIRCRPPRLPRPRPRPGNNPRP | -0.47 |
| RRIRTRPPRLPRPRPRPVYWPRP | -0.103 |
| RRIRYRPPRLPRPRPRPADKPRP | -0.419 |

| Sequence | shrunken log2 fold change |
| --- | --- |
| RRIRCRPPRLPRPRPRPVEVPRP | -0.0243 |
| RRIRERPPRLPRPRPRPDDRPRP | -0.135 |
| RRIRWRPPRLPRPRPRPFCLPRP | 0.0169 |
| RRIRTRPPRLPRPRPRPFPNPRP | -0.105 |
| RRIRNRPPRLPRPRPRPYAYPRP | -0.533 |
| RRIRRRPPRLPRPRPRPRKDPRP | 0.302 |
| RRIRDRPPRLPRPRPRPHFNPRP | -0.381 |
| RRIRWRPPRLPRPRPRPAVGPRP | 0.229 |
| RRIRSRPPRLPRPRPRPDFCPRP | 0.0315 |
| RRIRARPPRLPRPRPRPWNTPRP | -0.427 |
| RRIRSRPPRLPRPRPRPGTYPRP | -1.16 |
| RRIRTRPPRLPRPRPRPDLVPRP | -0.0188 |
| RRIRARPPRLPRPRPRPLKTPRP | 0.219 |
| RRIRERPPRLPRPRPRPFSAPRP | -0.161 |
| RRIRFRPPRLPRPRPRPLRTPRP | 0.703 |
| RRIRHRPPRLPRPRPRPSHMPRP | -0.856 |
| RRIRARPPRLPRPRPRPCWYPRP | -0.16 |
| RRIRQRPPRLPRPRPRPTYEPRP | -0.0761 |
| RRIRTRPPRLPRPRPRPFAVPRP | -0.0779 |
| RRIRYRPPRLPRPRPRPLLCPRP | -0.287 |
| RRIRMRPPRLPRPRPRPHRKPRP | 0.0879 |
| RRIRSRPPRLPRPRPRPWFYPRP | -0.172 |
| RRIRNRPPRLPRPRPRPFMKPRP | -0.0163 |
| RRIRGRPPRLPRPRPRPTCTPRP | 0.975 |
| RRIRTRPPRLPRPRPRPVVHPRP | -0.0314 |

| Sequence | shrunken log2 fold change |
| --- | --- |
| RRIRHRPPRLPRPRPRPLCHPRP | -0.44 |
| RRIRTRPPRLPRPRPRPIYLPRP | -0.224 |
| RRIRDRPPRLPRPRPRPMSMPRP | 0.017 |
| RRIRWRPPRLPRPRPRPNWFPRP | 0.156 |
| RRIRIRPPRLPRPRPRPVKSPRP | -0.0366 |
| RRIRYRPPRLPRPRPRPITSPRP | 0.0314 |
| RRIRWRPPRLPRPRPRPMSHPRP | -0.132 |
| RRIRERPPRLPRPRPRPDFTPRP | -0.233 |
| RRIRKRPPRLPRPRPRPWQDPRP | -0.0361 |
| RRIRLRPPRLPRPRPRPVWVPRP | -0.0407 |
| RRIRERPPRLPRPRPRPENVPRP | -0.0141 |
| RRIRWRPPRLPRPRPRPPCGPRP | 0.255 |
| RRIRSRPPRLPRPRPRPWQFPRP | 0.0527 |
| RRIRMRPPRLPRPRPRPSCEPRP | 0.541 |
| RRIRTRPPRLPRPRPRPAQKPRP | -0.00259 |
| RRIRWRPPRLPRPRPRPKWCPRP | -0.0668 |
| RRIRARPPRLPRPRPRPAYGPRP | 0.0552 |
| RRIRVRPPRLPRPRPRPYCWPRP | -0.0314 |
| RRIRHRPPRLPRPRPRPFIVPRP | -0.319 |
| RRIRARPPRLPRPRPRPGMRPRP | 0.545 |
| RRIRCRPPRLPRPRPRPRDHPRP | 0.197 |
| RRIRHRPPRLPRPRPRPWMMPRP | -0.463 |
| RRIRVRPPRLPRPRPRPHKCPRP | -0.274 |
| RRIRLRPPRLPRPRPRPEIAPRP | 0.167 |
| RRIRHRPPRLPRPRPRPITIPRP | -0.124 |

| Sequence | shrunken log2 fold change |
| --- | --- |
| RRIRSRPPRLPRPRPRPHFDPRP | 0.0286 |
| RRIRIRPPRLPRPRPRPHIMPRP | -1.41 |
| RRIRPRPPRLPRPRPRPMPIPRP | 0.0579 |
| RRIRLRPPRLPRPRPRPHVPPRP | 0.0978 |
| RRIRERPPRLPRPRPRPIKEPRP | 0.0101 |
| RRIRKRPPRLPRPRPRPSSDPRP | 0.246 |
| RRIRTRPPRLPRPRPRPDAGPRP | 0.11 |
| RRIRQRPPRLPRPRPRPQKVPRP | -0.0255 |
| RRIRSRPPRLPRPRPRPMCKPRP | 0.204 |
| RRIRARPPRLPRPRPRPQVIPRP | -0.109 |
| RRIRERPPRLPRPRPRPFPHPRP | -0.15 |
| RRIRNRPPRLPRPRPRPCEGPRP | 0.111 |
| RRIRCRPPRLPRPRPRPVHFPRP | 0.128 |
| RRIRLRPPRLPRPRPRPHFQPRP | -0.131 |
| RRIRYRPPRLPRPRPRPNSVPRP | -0.257 |
| RRIRFRPPRLPRPRPRPAQGPRP | -0.00447 |
| RRIRERPPRLPRPRPRPPWYPRP | -0.227 |
| RRIRARPPRLPRPRPRPMIYPRP | 0.00125 |
| RRIRWRPPRLPRPRPRPFKEPRP | -0.139 |
| RRIRLRPPRLPRPRPRPHASPRP | -0.046 |
| RRIRERPPRLPRPRPRPKPAPRP | 0.666 |
| RRIRERPPRLPRPRPRPESFPRP | 0.0447 |
| RRIRQRPPRLPRPRPRPDHHPRP | -0.308 |
| RRIRRRPPRLPRPRPRPMHGPRP | 0.144 |
| RRIRPRPPRLPRPRPRPPPLPRP | 0.699 |
